Results published in US20080299638A1 (priority 2004, published 2008).
Where “and” joins values, the source holds several entries; their conditions need not be identical. Equal values may be shown once.

Legend:
HBV-DNA in 2.2.15 cells = assay: HBV-DNA Southern blot in 2.2.15 cells; format: cell-based, hepatitis B virus
Procedure: Southern blot: Extraction of HBV-DNA from 2.2.15 cells: add drugs and incubate 2.2.15 cells for 8 days, remove medium and harvest cells, lyse cells with lysis solutions, extracts with equal volume phenol:chloroform:isopentanol twice, add absolute ethanol to precipitate nucleic acid, vacuum dry, re-dissolve in 20 μl TE buffer, add DNA sample buffer, put samples into agarose gel for electrophoresis. After electrophoresis, denature, neutralize and transfer to membrane. Oven dry, hybridize, expose with dot blotting the same time. Scan developed film with scanner, analyze relative density with gel-pro software, and calculate suppression rate and IC50.

2.2.15 cells = assay: Arginase toxicity to cells (CPE method, Reed-Muench); format: cell-based, human; conditions: 8 days drug addition
Procedure: Divide experiment into control group and test groups with different drug concentration. Digest cells, dilute to 200,000 cells/ml, transfer to culture plate, 100 μl per well for 96-well plate, incubate for 24 hours under 5% CO2 at 37° C., ready for experiment when cells grown into monolayer. […] Observe cytopathological changes, 8 days or 4 days under microscope, totally destroyed is 4; 75% destroyed is 3; 50% destroyed is 2, 25% destroyed is 1; no changes is 0. Calculate TC50 and TC0 according to Reed-Muench Method:
A=log>50% drug concentration; B=log<50% drug concentration; C=log times of dilution
Starting from 40 IU/ml and subsequently 20, 10, 5, 2.5 IU/ml, change drug solution every 4 days until 8 days, observe cytopathological changes under microscope, and check for CPE with microscope.

HBeAg = assay: Suppression of HBeAg secretion in 2.2.15 cells (radioimmunoassay, cpm); format: cell-based, hepatitis B virus
Procedure: (§1) Grow 200000 cells/ml 2.2.15 cell on 24-well plate, 1 ml per well, incubate for 24 hours under 5% CO2 at 37° C. […] 4 wells per concentration, incubate under 5% CO2 at 37° C., change drug solution every 4 days with the same concentration, retrieve culture medium at day 8, preserve at −20° C. Repeat experiment for 2 batches, test for HBsAg and HBeAg separately. Check cpm value for each wells using γ-counter.
(§2) Calculating drug effectiveness: calculate the mean and standard deviation of cpm from the cell control group and groups with different drug concentration, P/N value and percent suppression, IC50 and SI. • (1)
(§3) [formula] • (2) Calculate IC50 for drug suppression of antigen:
(§4) [formula] • (4) Calculate the cpm differences between HBsAg and HBeAg in different dilutions and control groups by t-test.

HBsAg = assay: Suppression of HBsAg secretion in 2.2.15 cells (radioimmunoassay, cpm); format: cell-based, hepatitis B virus; conditions: for HBsAg IC50: first batch
Procedure: as §1, §2, §3, §4

[1] = Arginase 2.5 μg/ml (unit as headed), batch 1, day 8
[2] = Arginase 2.5 μg/ml (unit as headed), batch 2, day 8
[3] = Arginase 5 μg/ml (unit as headed), batch 1, day 8
[4] = Arginase 5 μg/ml (unit as headed), batch 2, day 8
[5] = Arginase 10 μg/ml (unit as headed), batch 1, day 8
[6] = Arginase 10 μg/ml (unit as headed), batch 2, day 8
[7] = Arginase 20 μg/ml (unit as headed), batch 1, day 8
[8] = Arginase 20 μg/ml (unit as headed), batch 2, day 8
[9] = 2.2.15 cells, 8 days incubation, TC0 concentration and dilutions
[10] = Arginase 1.25 IU/ml, batch 2, day 8
[11] = Arginase 1.25 IU/ml, two batches average line, day 8
[12] = Arginase 2.5 IU/ml, batch 1, day 8
[13] = Arginase 2.5 IU/ml, batch 2, day 8
[14] = Arginase 2.5 IU/ml, two batches average, day 8
[15] = Arginase 5 IU/ml, batch 1, day 8
[16] = Arginase 5 IU/ml, batch 2, day 8
[17] = Arginase 5 IU/ml, two batches average, day 8
[18] = Arginase 10 IU/ml, batch 1, day 8
[19] = Arginase 10 IU/ml, batch 2, day 8
[20] = Arginase 10 IU/ml, two batches average, day 8
[21] = Arginase 20 IU/ml, batch 1, day 8
[22] = Arginase 20 IU/ml, two batches average, day 8
[23] = Arginase 20 IU/ml, two batches average, day 8, listed as pegylated recombinant arginase

B1: Arginase: Pegylated recombinant human arginase (BCT-100); human arginase I with N-terminal six-histidine tag, SEQ ID NO: 3 (protein, listed as Homo sapiens)
chain: MHHHHHHMSAKSRTIGIIGAPFSKGQPRGGVEEGPTVLRKAGLLEKLKEQECDVKDYGDLPFADIPNDSPFQIVKNPRSVGKASEQLAGKVAQVKKNGRISLVLGGDHSLAIGSISGHARVHPDLGVIWVDAHTDINTPLTTTSGNLHGQPVSFLLKELKGKIPDVPGFSWVTPCISAKDIVYIGLRDVDPGEHYILKTLGIKYFSMTEVDRLGIGKVMEETLSYLLGRKKRPIHLSFDVDGLDPSFTPATGTPVVGGLTYREGLYITEEIYKTGLLSGLDIMEVNPSLGKTPEEVTRTVNTAVAITLACFGLAREGNHKPIDYLNPPK
modifications: PEGylated
Effect on HBV-DNA in cells (result in words) (HBV-DNA in 2.2.15 cells; 2.2.15 cells, 8 days): lowers | HBV-DNA Southern Blot In Lane % Suppression (HBV-DNA in 2.2.15 cells; [1]): 31.6525% | HBV-DNA Southern Blot Sum % Suppression (HBV-DNA in 2.2.15 cells; [1]): 26.4131% | HBV-DNA Southern Blot Sum (IOD) (HBV-DNA in 2.2.15 cells; Arginase 2.5 μg/ml (unit as headed), batch 1, day 8, control 29421): 21650 IOD | HBV-DNA Southern Blot In Lane (IOD) (HBV-DNA in 2.2.15 cells; Arginase 2.5 μg/ml (unit as headed), batch 1, day 8, control 42082): 28762 IOD | HBV-DNA Southern Blot In Lane % Suppression (HBV-DNA in 2.2.15 cells; [2]): 38.6255% | HBV-DNA Southern Blot Sum % Suppression (HBV-DNA in 2.2.15 cells; [2]): 0% | HBV-DNA Southern Blot Sum (IOD) (HBV-DNA in 2.2.15 cells; Arginase 2.5 μg/ml (unit as headed), batch 2, day 8, control 66143): 68619 IOD | HBV-DNA Southern Blot In Lane (IOD) (HBV-DNA in 2.2.15 cells; Arginase 2.5 μg/ml (unit as headed), batch 2, day 8, control 76188): 88350 IOD | HBV-DNA Southern Blot In Lane % Suppression (HBV-DNA in 2.2.15 cells; [3]): 31.5717% | HBV-DNA Southern Blot Sum % Suppression (HBV-DNA in 2.2.15 cells; [3]): 31.6679% | HBV-DNA Southern Blot Sum (IOD) (HBV-DNA in 2.2.15 cells; Arginase 5 μg/ml (unit as headed), batch 1, day 8, control 29421): 20104 IOD | HBV-DNA Southern Blot In Lane (IOD) (HBV-DNA in 2.2.15 cells; Arginase 5 μg/ml (unit as headed), batch 1, day 8, control 42082): 28796 IOD | HBV-DNA Southern Blot In Lane % Suppression (HBV-DNA in 2.2.15 cells; [4]): 19.0752% | HBV-DNA Southern Blot Sum % Suppression (HBV-DNA in 2.2.15 cells; [4]): 30.0259% | HBV-DNA Southern Blot Sum (IOD) (HBV-DNA in 2.2.15 cells; Arginase 5 μg/ml (unit as headed), batch 2, day 8, control 66143): 46283 IOD | HBV-DNA Southern Blot In Lane (IOD) (HBV-DNA in 2.2.15 cells; Arginase 5 μg/ml (unit as headed), batch 2, day 8, control 76188): 61655 IOD | HBV-DNA Southern Blot In Lane % Suppression (HBV-DNA in 2.2.15 cells; [5]): 22.7722% | HBV-DNA Southern Blot Sum % Suppression (HBV-DNA in 2.2.15 cells; [5]): 17.6303% | HBV-DNA Southern Blot Sum (IOD) (HBV-DNA in 2.2.15 cells; Arginase 10 μg/ml (unit as headed), batch 1, day 8, control 29421): 24234 IOD | HBV-DNA Southern Blot In Lane (IOD) (HBV-DNA in 2.2.15 cells; Arginase 10 μg/ml (unit as headed), batch 1, day 8, control 42082): 32499 IOD | HBV-DNA Southern Blot In Lane % Suppression (HBV-DNA in 2.2.15 cells; [6]): 13.0559% | HBV-DNA Southern Blot Sum % Suppression (HBV-DNA in 2.2.15 cells; [6]): 29.1172% | HBV-DNA Southern Blot Sum (IOD) (HBV-DNA in 2.2.15 cells; Arginase 10 μg/ml (unit as headed), batch 2, day 8, control 66143): 46884 IOD | HBV-DNA Southern Blot In Lane (IOD) (HBV-DNA in 2.2.15 cells; Arginase 10 μg/ml (unit as headed), batch 2, day 8, control 76188): 66241 IOD | HBV-DNA Southern Blot In Lane % Suppression (HBV-DNA in 2.2.15 cells; [7]): 25.2982% | HBV-DNA Southern Blot Sum % Suppression (HBV-DNA in 2.2.15 cells; [7]): 14.9893% | HBV-DNA Southern Blot Sum (IOD) (HBV-DNA in 2.2.15 cells; Arginase 20 μg/ml (unit as headed), batch 1, day 8, control 29421): 25011 IOD | HBV-DNA Southern Blot In Lane (IOD) (HBV-DNA in 2.2.15 cells; Arginase 20 μg/ml (unit as headed), batch 1, day 8, control 42082): 31436 IOD | HBV-DNA Southern Blot In Lane % Suppression (HBV-DNA in 2.2.15 cells; [8]): 38.6255% | HBV-DNA Southern Blot Sum % Suppression (HBV-DNA in 2.2.15 cells; [8]): 47.9416% | HBV-DNA Southern Blot Sum (IOD) (HBV-DNA in 2.2.15 cells; Arginase 20 μg/ml (unit as headed), batch 2, day 8, control 66143): 34433 IOD | HBV-DNA Southern Blot In Lane (IOD) (HBV-DNA in 2.2.15 cells; Arginase 20 μg/ml (unit as headed), batch 2, day 8, control 76188): 46760 IOD | HBV-DNA Southern Blot Sum IC50 (HBV-DNA in 2.2.15 cells; batch 1, 8 days): 25.42 IU/ml | HBV-DNA Southern Blot In Lane IC50 (HBV-DNA in 2.2.15 cells; batch 1, day 8): 21.45 IU/ml | HBV-DNA Southern Blot Sum IC50 (HBV-DNA in 2.2.15 cells; batch 2, 8 days): 14.17 IU/ml | HBV-DNA Southern Blot In Lane IC50 (HBV-DNA in 2.2.15 cells; batch 2, day 8): 18.67 IU/ml | HBV-DNA Southern Blot Sum IC50 (HBV-DNA in 2.2.15 cells; two batches average, 8 days): 19.79±7.95 IU/ml | HBV-DNA Southern Blot In Lane IC50 (HBV-DNA in 2.2.15 cells; two batches average, day 8): 20.06±1.96 IU/ml | TC50 (2.2.15 cells): 40 IU/ml | TC0 (2.2.15 cells; listed as pegylated recombinant arginase): 20±0 IU/ml | Suppression of HBeAg secretion (result in words) (HBeAg; [9]): significantly inhibits | HBeAg (CPM) % suppression (HBeAg; [10]): 37.3426% | HBeAg (CPM) % suppression (HBeAg; [11]): 37.34% | HBeAg (CPM) % suppression (HBeAg; [12]): 61.8387% | HBeAg (CPM) % suppression (HBeAg; [13]): 41.8149% | HBeAg (CPM) % suppression (HBeAg; [14]): 51.83±14.16% | HBeAg (CPM) % suppression (HBeAg; [15]): 68.3484% | HBeAg (CPM) % suppression (HBeAg; [16]): 39.5618% | HBeAg (CPM) % suppression (HBeAg; [17]): 53.96±20.36% | HBeAg (CPM) % suppression (HBeAg; [18]): 73.0985% | HBeAg (CPM) % suppression (HBeAg; [19]): 48.3596% | HBeAg (CPM) % suppression (HBeAg; [20]): 60.73±17.49% | HBeAg (CPM) % suppression (HBeAg; [21]): 74.9808% | HBeAg (CPM) % suppression (HBeAg; Arginase 20 IU/ml, batch 2, day 8): 62.4033% | HBeAg (CPM) % suppression (HBeAg; [22]): 68.69±8.89% | HBeAg (CPM) % suppression (HBeAg; [23]): 68.69±8.89% | HBeAg IC50 (HBeAg; batch 1, day 8): 6.69 IU/ml | HBeAg IC50 (HBeAg; batch 2, day 8): 6.05 IU/ml | HBeAg IC50 (HBeAg; two batches average, day 8): 6.37 ± 0.45 IU/ml and 6.37 IU/ml | HBeAg IC50 (HBeAg; two batches average, day 8, listed as pegylated recombinant arginase): 6.37±0.45 IU/ml | Suppression of HBsAg secretion (result in words) (HBsAg; [9]): significantly inhibits | HBsAg (CPM) % suppression (HBsAg; [10]): 4.463% | HBsAg (CPM) % suppression (HBsAg; [11]): 4.46% | HBsAg (CPM) % suppression (HBsAg; [12]): 37.18% and 37.1787% | HBsAg (CPM) % suppression (HBsAg; [13]): 2.6073% | HBsAg (CPM) % suppression (HBsAg; [14]): 19.92 ± 24.40% | HBsAg (CPM) % suppression (HBsAg; [15]): 42.29% and 42.2871% | HBsAg (CPM) % suppression (HBsAg; [16]): 1.4739% | HBsAg (CPM) % suppression (HBsAg; [17]): 21.88 ± 28.86% | HBsAg (CPM) % suppression (HBsAg; [18]): 47.97% and 47.9651% | HBsAg (CPM) % suppression (HBsAg; [19]): 6.0761% | HBsAg (CPM) % suppression (HBsAg; [20]): 27.02 ± 29.62% | HBsAg (CPM) % suppression (HBsAg; [21]): 49.16% and 49.1558% | HBsAg (CPM) % suppression (HBsAg; [22]): 29.81±27.35% | HBsAg (CPM) % suppression (HBsAg; [23]): 29.81±27.35% | HBsAg IC50 (HBsAg; day 8): (1)10.72 IU/ml | HBsAg IC50 (HBsAg; day 8, listed as pegylated recombinant arginase): 10.72 IU/ml
